This note sets out measurements from PMC10786891, “Massively parallel profiling of RNA-targeting CRISPR-Cas13d”.

To fix the notation:
T1: EsCas13d, nuclease-dead (Eubacterium siraeum, UniProt B0MS50, R295A;H300A;R849A;H854A)
T1 sequence: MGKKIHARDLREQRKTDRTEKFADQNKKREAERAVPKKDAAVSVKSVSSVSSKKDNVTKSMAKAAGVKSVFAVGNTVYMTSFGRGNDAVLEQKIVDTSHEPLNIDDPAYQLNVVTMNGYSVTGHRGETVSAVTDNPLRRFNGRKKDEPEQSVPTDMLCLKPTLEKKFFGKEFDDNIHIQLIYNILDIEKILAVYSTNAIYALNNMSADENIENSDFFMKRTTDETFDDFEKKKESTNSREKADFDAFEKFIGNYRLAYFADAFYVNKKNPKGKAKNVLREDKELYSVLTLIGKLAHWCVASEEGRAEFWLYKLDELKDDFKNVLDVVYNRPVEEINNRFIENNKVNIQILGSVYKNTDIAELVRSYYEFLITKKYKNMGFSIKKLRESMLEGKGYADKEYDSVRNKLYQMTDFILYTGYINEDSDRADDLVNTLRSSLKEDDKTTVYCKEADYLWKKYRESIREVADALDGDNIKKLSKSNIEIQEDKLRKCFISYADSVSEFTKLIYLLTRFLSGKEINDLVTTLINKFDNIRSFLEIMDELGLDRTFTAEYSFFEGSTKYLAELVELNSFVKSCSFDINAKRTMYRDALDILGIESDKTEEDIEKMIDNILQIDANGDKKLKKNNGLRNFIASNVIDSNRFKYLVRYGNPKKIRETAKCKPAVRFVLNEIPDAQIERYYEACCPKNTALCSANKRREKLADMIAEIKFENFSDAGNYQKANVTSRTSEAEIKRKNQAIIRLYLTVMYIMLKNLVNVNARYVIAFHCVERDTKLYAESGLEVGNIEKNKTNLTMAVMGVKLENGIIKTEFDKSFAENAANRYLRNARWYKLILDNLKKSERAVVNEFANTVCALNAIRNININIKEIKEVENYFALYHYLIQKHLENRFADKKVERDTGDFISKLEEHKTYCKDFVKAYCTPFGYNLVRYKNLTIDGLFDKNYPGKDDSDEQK

B1: target 1 insG 3' of 14,insC 3' of 1 (mixed)
RNA 1: CACCCGUGCAAAAAUGCAGGGGUCUAAAACUGAGCGGAUAACCUCUCUAUGG
RNA 2: GGGAAUGGAUCCACAUCUACGAAUUCGUACCAUAGAGAGGGUUAUCCGCUCACCCGAGAUCGGAAGAGCACACGU
B2: target 1 insG 3' of 21,insU 3' of 12 (mixed)
RNA 1: CACCCGUGCAAAAAUGCAGGGGUCUAAAACUGAGCGGAUAACCUCUCUAUGG
RNA 2: GGGAAUGGAUCCACAUCUACGAAUUCGUACCGAUAGAGAGGUUUAUCCGCUCACCGAGAUCGGAAGAGCACACGU
B3: target 1 insG 3' of 11,insG 3' of 1 (mixed)
RNA 1: CACCCGUGCAAAAAUGCAGGGGUCUAAAACUGAGCGGAUAACCUCUCUAUGG
RNA 2: GGGAAUGGAUCCACAUCUACGAAUUCGUACCAUAGAGAGGUGUAUCCGCUCAGCCGAGAUCGGAAGAGCACACGU
B4: target 1 insG 3' of 11,insC 3' of 1 (mixed)
RNA 1: CACCCGUGCAAAAAUGCAGGGGUCUAAAACUGAGCGGAUAACCUCUCUAUGG
RNA 2: GGGAAUGGAUCCACAUCUACGAAUUCGUACCAUAGAGAGGUGUAUCCGCUCACCCGAGAUCGGAAGAGCACACGU
B5: target 1 insC 3' of 15,insC 3' of 9 (mixed)
RNA 1: CACCCGUGCAAAAAUGCAGGGGUCUAAAACUGAGCGGAUAACCUCUCUAUGG
RNA 2: GGGAAUGGAUCCACAUCUACGAAUUCGUACCAUAGAGCAGGUUACUCCGCUCACCGAGAUCGGAAGAGCACACGU
B6: target 1 insG 3' of 14,insG 3' of 1 (mixed)
RNA 1: CACCCGUGCAAAAAUGCAGGGGUCUAAAACUGAGCGGAUAACCUCUCUAUGG
RNA 2: GGGAAUGGAUCCACAUCUACGAAUUCGUACCAUAGAGAGGGUUAUCCGCUCAGCCGAGAUCGGAAGAGCACACGU
B7: target 1 U19C,C22A (mixed)
RNA 1: CACCCGUGCAAAAAUGCAGGGGUCUAAAACUGAGCGGAUAACCUCUCUAUGG
RNA 2: GGGAAUGGAUCCACAUCUACGAAUUCGUAACACAGAGAGGUUAUCCGCUCACCGAGAUCGGAAGAGCACACGU
B8: target 1 insG 3' of 14,insU 3' of 1 (mixed)
RNA 1: CACCCGUGCAAAAAUGCAGGGGUCUAAAACUGAGCGGAUAACCUCUCUAUGG
RNA 2: GGGAAUGGAUCCACAUCUACGAAUUCGUACCAUAGAGAGGGUUAUCCGCUCAUCCGAGAUCGGAAGAGCACACGU
B9: target 1 insC 3' of 5,insG 3' of 3 (mixed)
RNA 1: CACCCGUGCAAAAAUGCAGGGGUCUAAAACUGAGCGGAUAACCUCUCUAUGG
RNA 2: GGGAAUGGAUCCACAUCUACGAAUUCGUACCAUAGAGAGGUUAUCCGCCUGCACCGAGAUCGGAAGAGCACACGU
B10: target 1 insG 3' of 11,insA 3' of 2 (mixed)
RNA 1: CACCCGUGCAAAAAUGCAGGGGUCUAAAACUGAGCGGAUAACCUCUCUAUGG
RNA 2: GGGAAUGGAUCCACAUCUACGAAUUCGUACCAUAGAGAGGUGUAUCCGCUCAACCGAGAUCGGAAGAGCACACGU
B11: target 1 U3A,A20U (mixed)
RNA 1: CACCCGUGCAAAAAUGCAGGGGUCUAAAACUGAGCGGAUAACCUCUCUAUGG
RNA 2: GGGAAUGGAUCCACAUCUACGAAUUCGUACCUUAGAGAGGUUAUCCGCACACCGAGAUCGGAAGAGCACACGU
B12: target 1 insG 3' of 19,insU 3' of 15 (mixed)
RNA 1: CACCCGUGCAAAAAUGCAGGGGUCUAAAACUGAGCGGAUAACCUCUCUAUGG
RNA 2: GGGAAUGGAUCCACAUCUACGAAUUCGUACCAUGAGAGUAGGUUAUCCGCUCACCGAGAUCGGAAGAGCACACGU
B13: target 1 insG 3' of 11,insC 3' of 11 (mixed)
RNA 1: CACCCGUGCAAAAAUGCAGGGGUCUAAAACUGAGCGGAUAACCUCUCUAUGG
RNA 2: GGGAAUGGAUCCACAUCUACGAAUUCGUACCAUAGAGAGGUGCUAUCCGCUCACCGAGAUCGGAAGAGCACACGU

The target of the series is T1, EsCas13d, nuclease-dead. The experiment in a line: crRNA (strand 1, pre-loaded); Mg2+; 40 mM Tris-HCl pH 7.5, 150 mM NaCl, 6 mM MgCl2, 1 mM DTT, 0.1% Tween-20, 0.2 mg/ml BSA; 25 C; 10 min per concentration, then washed. The conditions noted are these: tags: His6-TwinStrep-SUMO cleaved; N-terminal SNAP kept (SNAP-Surface 488); label: 3' end held by stalled T7 RNA polymerase.
What is called Kd is the free concentration of one partner at which half of the binding sites on the other are occupied at equilibrium, for simple one-to-one binding. High values mean a looser complex, low ones a tighter complex. For B1, binding was characterised by a dissociation constant (Kd) of 10.4 ± 0.4 nM. The figure for B2 is 64 ± 13 nM; for B3 it is 34 ± 4 nM. The molecule B4 gave a Kd of 35 ± 6 nM. On to B5, for which the affinity, expressed as Kd, was 20 ± 1.7 nM. Then B6, with 11.3 ± 0.7 nM. Then B7, with 43 ± 5 nM.

Turning to B8, the Kd stood at 12.3 ± 1.2 nM.

B9 gave a Kd of 24.9 ± 2.3 nM.

The molecule B10 registered a Kd of 49 ± 6 nM.

In turn, B11 showed a Kd of 44 ± 4 nM. As to B12, the Kd came out at 60 ± 9 nM. Then B13, with 18 ± 1.7 nM.
